Consider 4 substances from article PMC8313361.

The assay deals with Recombinant rat SNX27 PDZ domain (residues 38-135) (rat) (UniProt Q8K4V4). The assay is described as follows: ITC.

With “GluN2A C-terminal peptide, S1459A phospho-deficient mutant”, the Kd came out at 49 µM.
The result for “GluN2A C-terminal peptide, S1459E phospho-mimetic mutant” reads 25 µM; that for GluN2A C-terminal peptide, wild type, 46 µM; that for “Phosphorylated GluN2A C-terminal peptide (phospho-Ser-1459)”, 14 µM.
